The source of these data is PMC11476191, “Towards controlling activity of a peptide asparaginyl ligase (PAL) by lumazine synthetase compartmentalization” (Faraday Discussions, 2024).

The target of series [1] is AaLS-13 (Aquifex aeolicus). Nature of the series: SEC; Ni-NTA eluate of the co-expressed proteins on Superose 6; 50 mM sodium phosphate pH 7.0, 150 mM NaCl, 1 mM EDTA, 1 mM TCEP; fractions by SDS-PAGE; repeated in buffer at pH 7.0 and 7.4.
Series [2] deals with the molecule itself. Nature of the series: negative stain transmission electron microscopy; purified protein samples (0.05-0.15 mg/mL) on carbon-covered copper grids, uranyl acetate stain, 200 kV.

Take cpAaLS-OaAEP1-C247A: the ratio of cpAaLS-OaAEP1-C247A to AaLS-13 in the cage (estimated from SDS-PAGE band intensity) (AaLS-13 per cpAaLS-OaAEP1-C247A) in series [1] was 3.3.

B1: AaLS-13 (other, Aquifex aeolicus)
chain: MEIYEGKLTAEGLRFGIVASRFNHALVGRLVEGAIDCIVRHGGREEDITLVCVPGSWEIPVAAGELARKEDIDAVIAIGVLIEGAEPHFDYIASEVSKGLANLSLELRKPISFGDITDDELEEAIECAGTEHGNKGWEAALSAIEMANLFKSLR
notes: negatively supercharged engineered variant of lumazine synthase from Aquifex aeolicus (AaLS); Self-assembles into a protein cage; also called His6-tagged AaLS-13; AsLS-13; source: E. coli SHuffle T7 Express, co-expressed with cpAaLS-OaAEP1-C247A (IPTG induction); in lysate, then purified (Ni-NTA IMAC, SEC)
With B1, the binding result in series [2] was “binds”.
